Key:
[1] = biological target: T1, UBXN7-UAS recombinant protein (human, UniProt O94888 94-284); assay: pull-down; in vitro: GST-RING domains on beads with UBE2D2, with or without UBXN7-UAS; Coomassie staining; details: both partners purified
T1 construct: UAS domain of human UBXN7 (aa 94-284); also called UAS domain; source: E. coli BL21, purified (Glutathione Sepharose, released by GST-3C protease)
T1 sequence (looked up): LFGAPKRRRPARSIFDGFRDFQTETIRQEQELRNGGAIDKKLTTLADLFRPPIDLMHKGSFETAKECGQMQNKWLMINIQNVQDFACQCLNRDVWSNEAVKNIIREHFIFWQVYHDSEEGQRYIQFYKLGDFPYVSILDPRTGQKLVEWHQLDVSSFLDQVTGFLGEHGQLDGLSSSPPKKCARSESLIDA

UBE2D2 = biological target: T2, UBE2D2 (human, UniProt P62837 1-147); assay: as above; details: both partners purified
T2 construct: UBE2D2 without GST; probably released from GST-UBE2D2 by GST-3C protease as told in general for the PGEX4T3-3C constructs; also called recombinant UBE2D2; source: recombinant

B1: GST-TOPORS-RING (domain or fragment, human, UniProt Q9NS56 68-176, looked up)
chain: MASAAKEFKMDNFSPKAGTSKLQQTVPADASPDSKCPICLDRFDNVSYLDRCLHKFCFRCVQEWSKNKAECPLCKQPFDSIFHSVRAEDDFKEYVLRPSYNGSFVTPDR
notes: human TOPORS-RING (aa 68-176); the methods tell its cloning into p3xFlag-CMV-10 only, not into the GST vector; also called minimal RING domain of TOPORS; TOPORS RING domain; source: recombinant, on Glutathione Sepharose
B1: binds [1]; binds (UBE2D2).

Reference: PMC10080908 (BMC Biology, 2023)
